A short description of the data set: total protein half-life in vivo (active degradation + dilution); higher = more stable protein.
Setting [1] is: E. coli NCM3722 delta-clpP delta-lon delta-hslV, growth: N-lim chemostat, doubling time 6 h.
The mark [2] stands for this setting: E. coli NCM3722 delta-clpP, growth: N-lim chemostat, doubling time 6 h.
Setting [3] is: E. coli NCM3722 delta-hslV, growth: N-lim chemostat, doubling time 6 h.
[4] abbreviates: E. coli NCM3722 delta-lon, growth: N-lim chemostat, doubling time 6 h.
The mark [5] stands for this setting: E. coli NCM3722 delta-smpB, growth: N-lim chemostat, doubling time 6 h.
Setting [6] is: wild type E. coli NCM3722, growth: C-lim chemostat, doubling time 3 h.
[7] abbreviates: wild type E. coli NCM3722, growth: C-lim chemostat, doubling time 6 h.
The mark [8] stands for this setting: wild type E. coli NCM3722, growth: C-lim chemostat, doubling time 12 h.
The mark [9] stands for this setting: wild type E. coli NCM3722, growth: N-lim chemostat, doubling time 6 h.
Where [10] appears, read: wild type E. coli NCM3722, growth: N-lim chemostat, doubling time 12 h.
The mark [11] stands for this setting: wild type E. coli NCM3722, growth: P-lim chemostat, doubling time 6 h.
The mark [12] stands for this setting: wild type E. coli NCM3722, growth: P-lim chemostat, doubling time 12 h.

This note sets out measurements from the supplement of paper PMC11246515.

± gives the standard deviation of the averaged measurements.

Regarding “MIKQRTLKRIVQATGVGLHTGKKVTLTLRPAPANTGVIYRRTDLNPPVDFPADAKSVRDTMLCTCLVNEHDVRISTVEHLNAALAGLGIDNIVIEVNAPEIPIMDGSAAPFVYLLLDAGIDELNCAKKFVRIKETVRVEDGDKWAEFKPYNGFSLDFTIDFNHPAIDSSNQRYAMNFSADAFMRQISRARTFGFMRDIEYLQSRGLCLGGSFDCAIVVDDYRVLNEDGLRFEDEFVRHKMLDAIGDLFMCGHNIIGAFTAYKSGHALNNKLLQAVLAKQEAWEYVTFQDDAELPLAFKAPSAVLA [P0A725]”, the “total protein half-life in vivo” value reads like this: under setting [1], 2.8 ± 0.28 h; under setting [2], 0.889 ± 0.17 h; under setting [3], 0.979 ± 0.33 h; under setting [4], 1.03 ± 0.011 h; under setting [5], 0.639 ± 0.021 h; under setting [6], 0.467 ± 0.1 h. Further, the “total protein half-life in vivo” value under setting [7] turned out to be 0.861 ± 0.11 h; the “total protein half-life in vivo” value under setting [8] amounted to 1.1 ± 0.33 h; the “total protein half-life in vivo” value under setting [9] is 0.978 ± 0.12 h; the “total protein half-life in vivo” value under setting [10] was found to be 1.43 ± 0.28 h; the “total protein half-life in vivo” value under setting [11] was determined as 1.06 ± 0.19 h; the “total protein half-life in vivo” value under setting [12] is 2.1 ± 0.78 h.
“MKMIEVVAAIIERDGKILLAQRPAQSDQAGLWEFAGGKVEPDESQRQALVRELREELGIEATVGEYVASHQREVSGRIIHLHAWHVPDFHGTLQAHEHQALVWCSPEEALQYPLAPADIPLLEAFMALRAARPAD”: the “total protein half-life in vivo” value by setting is: under setting [1], 4.73 h; under setting [2], 4.63 h; under setting [4], 5.61 h; under setting [5], 4.07 h; under setting [6], 3.25 h; under setting [7], 4.61 ± 0.59 h. Besides, the “total protein half-life in vivo” value under setting [8] is 8.63 h; the “total protein half-life in vivo” value under setting [9] was determined as 3.82 h; the “total protein half-life in vivo” value under setting [10] is 6.31 ± 0.54 h; the “total protein half-life in vivo” value under setting [11] stood at 4.59 h; the “total protein half-life in vivo” value under setting [12] was 8.52 ± 0.99 h.
Regarding “MKCSWREGNKIQLLENGEQYYPAVFKAIGEAQERIILETFIWFEDDVGKQLHAALLAAAQRGVKAEVLLDGYGSPDLSDEFVNELTAAGVVFRYYDPRPRLFGMRTNVFRRMHRKIVVIDARIAFIGGLNYSAEHMSSYGPEAKQDYAVRLEGPIVEDILQFELENLPGQSAARRWWRRHHKAEENRQPGEAQVLLVWRDNEEHRDDIERHYLKMLTQARREVIIANAYFFPGYRFLHALRKAARRGVRIKLIIQGEPDMPIVRVGARLLYNYLVKGGVQVFEYRRRPLHGKVALMDDHWATVGSSNLDPLSLSLNLEANVIIHDRHFNQTLRDNLNGIIAADCQQVDETMLPKRTWWNLTKSVLAFHFLRHFPALVGWLPAHTPRLAQVDPPAQPTMETQDRVETENTGVKP [P0AA84]”, the “total protein half-life in vivo” value is, setting by setting: under setting [1], 5.09 ± 0.17 h; under setting [2], 4.47 ± 0.2 h; under setting [3], 3.731 ± 0.026 h; under setting [4], 4.02 ± 0.65 h; under setting [5], 3.99 ± 0.16 h; under setting [6], 2.78 ± 0.092 h. Further, the “total protein half-life in vivo” value under setting [7] came out at 5.37 ± 2.1 h; the “total protein half-life in vivo” value under setting [8] was 5.9 ± 1.9 h; the “total protein half-life in vivo” value under setting [9] came to 3.75 ± 0.25 h; the “total protein half-life in vivo” value under setting [10] was found to be 6.19 ± 0.53 h; the “total protein half-life in vivo” value under setting [11] was found to be 5.17 ± 1.5 h; the “total protein half-life in vivo” value under setting [12] was 9.94 ± 4.7 h.
With “MRIGHGFDVHAFGGEGPIIIGGVRIPYEKGLLAHSDGDVALHALTDALLGAAALGDIGKLFPDTDPAFKGADSRELLREAWRRIQAKGYTLGNVDVTIIAQAPKMLPHIPQMRVFIAEDLGCHMDDVNVKATTTEKLGFTGRGEGIACEAVALLIKATK”, the “total protein half-life in vivo” value runs as follows: under setting [1], 5.75 ± 0.23 h; under setting [2], 4.63 ± 0.57 h; under setting [3], 4.88 ± 0.23 h; under setting [4], 5 ± 0.85 h; under setting [5], 4.88 ± 0.38 h; under setting [6], 2.872 ± 0.01 h. Besides, the “total protein half-life in vivo” value runs as follows: under setting [7], 6.85 ± 1.3 h; under setting [8], 10.7 h; under setting [9], 4.9 ± 0.24 h; under setting [10], 8.67 ± 0.53 h; under setting [11], 5.806 ± 0.032 h; under setting [12], 12.9 ± 0.45 h.
“MAQITTTDANEFSSSAEFIPMRGFSNCHLQTMLPRLFRRQVKFTPYWQRLELPDGDFVDLAWSENPAQAQHKPRLVVFHGLEGSLNSPYAHGLVEAAQKRGWLGVVMHFRGCSGEPNRMHRIYHSGETEDASWFLRWLQREFGHAPTAAVGYSLGGNMLACLLAKEGNDLPVDAAVIVSAPFMLEACSYHMEKGFSRVYQRYLLNLLKANAARKLAAYPGTLPINLAQLKSVRRIREFDDLITARIHGYADAIDYYRQCSAMPMLNRIAKPTLIIHAKDDPFMDHQVIPKPESLPPQVEYQLTEHGGHVGFIGGTLLHPQMWLESRIPDWLTTYLEAKSC”: the “total protein half-life in vivo” value under setting [1] was found to be 3.69 h, the “total protein half-life in vivo” value under setting [8] was 3.84 h, the “total protein half-life in vivo” value under setting [11] amounted to 2.34 h and the “total protein half-life in vivo” value under setting [12] stood at 4.3 h.
In the case of “MVELKEPLATLWRGKDAFAEVKKLNGEVFRELETRRTLRFELSGKSYFLKWHKGTTLKEIIKNLLSLRMPVLGADREWHAIHRLSDVGVDTMKGIGFGEKGLNPLTRASFIITEDLTPTISLEDYCADWAVNPPDIRVKRMLIARVATMVRKMHTAGINHRDCYICHFLLHLPFTGREDELKISVIDLHRAQIRAKVPRRWRDKDLIGLYFSSMNIGLTQRDIWRFMKVYFGMPLRKILSLEQNLLNMASVKAERIKERTQRKGL”, the “total protein half-life in vivo” value by setting is: under setting [1], 6.12 ± 0.57 h; under setting [2], 6.03 ± 0.16 h; under setting [3], 6.41 ± 0.56 h; under setting [4], 5.58 ± 0.54 h; under setting [5], 5.92 ± 0.2 h; under setting [6], 3.02 ± 0.17 h. Further, the “total protein half-life in vivo” value by setting is: under setting [7], 6.68 ± 0.36 h; under setting [8], 11.5 ± 0.34 h; under setting [9], 5.76 ± 0.48 h; under setting [10], 11.4 ± 1.2 h; under setting [11], 5.94 ± 0.41 h; under setting [12], 12 ± 0.44 h.
